# In patent publication US20230218715A1:
# Tests used:
# Assay in all cases: cell-based or functional assay
# [1] = target: S protein of HCoV strain 229E (HCoV 229E) (UniProt P15423)
# [2] = target: S protein of HCoV strain NL63 (HCoV NL63) (UniProt Q6Q1S2)
# [3] = target: S protein of HCoV strain OC43 (HCoV OC43) (UniProt P36334)
# [4] = target: S protein of MERS-CoV strain EMC/2012 (MERS-CoV strain EMC/2012) (UniProt K9N5Q8)
# [5] = target: S protein of SARS-CoV strain CuHK (SARS-CoV strain CuHK)
# [6] = target: S protein of SARS-CoV strain Frank (SARS-CoV strain Frank)
# [7] = target: S protein of SARS-CoV strain Tor-II (SARS-CoV strain Tor-II) (UniProt P59594)
# [8] = target: S protein of SARS-CoV strain Urbani (SARS-CoV strain Urbani)
# [9] = target: S protein of SARS-CoV-2 strain USA-WA1/2020 (SARS-CoV-2 strain USA-WA1/2020) (UniProt P0DTC2)
# UniProt P15423, sequence (P15423 16-1173): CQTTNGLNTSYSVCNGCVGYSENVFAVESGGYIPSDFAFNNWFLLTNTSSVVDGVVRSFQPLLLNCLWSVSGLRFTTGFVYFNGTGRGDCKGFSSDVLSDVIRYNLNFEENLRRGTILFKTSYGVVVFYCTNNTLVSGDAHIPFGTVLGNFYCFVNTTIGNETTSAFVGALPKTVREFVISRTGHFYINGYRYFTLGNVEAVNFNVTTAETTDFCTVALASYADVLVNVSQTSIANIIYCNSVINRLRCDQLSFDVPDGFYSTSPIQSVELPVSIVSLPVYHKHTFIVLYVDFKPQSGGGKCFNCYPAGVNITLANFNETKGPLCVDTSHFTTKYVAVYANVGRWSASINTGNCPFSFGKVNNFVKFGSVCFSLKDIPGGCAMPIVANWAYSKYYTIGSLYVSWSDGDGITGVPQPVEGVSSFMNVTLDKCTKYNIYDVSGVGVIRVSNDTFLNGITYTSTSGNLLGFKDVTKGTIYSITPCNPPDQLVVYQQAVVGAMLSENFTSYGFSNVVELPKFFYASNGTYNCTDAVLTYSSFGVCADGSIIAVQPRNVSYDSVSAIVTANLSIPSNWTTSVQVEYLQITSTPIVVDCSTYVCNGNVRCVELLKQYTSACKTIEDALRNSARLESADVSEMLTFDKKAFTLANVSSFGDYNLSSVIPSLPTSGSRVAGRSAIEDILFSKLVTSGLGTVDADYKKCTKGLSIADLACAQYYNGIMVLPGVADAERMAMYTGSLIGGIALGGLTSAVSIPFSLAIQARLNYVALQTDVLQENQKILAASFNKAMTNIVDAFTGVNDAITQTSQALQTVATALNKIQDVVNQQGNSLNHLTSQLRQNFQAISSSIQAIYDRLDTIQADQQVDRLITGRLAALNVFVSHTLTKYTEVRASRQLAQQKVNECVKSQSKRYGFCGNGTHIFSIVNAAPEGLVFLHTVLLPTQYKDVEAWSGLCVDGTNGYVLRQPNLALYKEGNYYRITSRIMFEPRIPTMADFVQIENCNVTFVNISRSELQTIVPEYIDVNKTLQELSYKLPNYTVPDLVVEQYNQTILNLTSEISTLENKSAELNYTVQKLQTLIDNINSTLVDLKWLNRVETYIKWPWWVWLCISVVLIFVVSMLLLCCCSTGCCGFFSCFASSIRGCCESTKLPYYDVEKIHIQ
# UniProt K9N5Q8, sequence (K9N5Q8 18-1353): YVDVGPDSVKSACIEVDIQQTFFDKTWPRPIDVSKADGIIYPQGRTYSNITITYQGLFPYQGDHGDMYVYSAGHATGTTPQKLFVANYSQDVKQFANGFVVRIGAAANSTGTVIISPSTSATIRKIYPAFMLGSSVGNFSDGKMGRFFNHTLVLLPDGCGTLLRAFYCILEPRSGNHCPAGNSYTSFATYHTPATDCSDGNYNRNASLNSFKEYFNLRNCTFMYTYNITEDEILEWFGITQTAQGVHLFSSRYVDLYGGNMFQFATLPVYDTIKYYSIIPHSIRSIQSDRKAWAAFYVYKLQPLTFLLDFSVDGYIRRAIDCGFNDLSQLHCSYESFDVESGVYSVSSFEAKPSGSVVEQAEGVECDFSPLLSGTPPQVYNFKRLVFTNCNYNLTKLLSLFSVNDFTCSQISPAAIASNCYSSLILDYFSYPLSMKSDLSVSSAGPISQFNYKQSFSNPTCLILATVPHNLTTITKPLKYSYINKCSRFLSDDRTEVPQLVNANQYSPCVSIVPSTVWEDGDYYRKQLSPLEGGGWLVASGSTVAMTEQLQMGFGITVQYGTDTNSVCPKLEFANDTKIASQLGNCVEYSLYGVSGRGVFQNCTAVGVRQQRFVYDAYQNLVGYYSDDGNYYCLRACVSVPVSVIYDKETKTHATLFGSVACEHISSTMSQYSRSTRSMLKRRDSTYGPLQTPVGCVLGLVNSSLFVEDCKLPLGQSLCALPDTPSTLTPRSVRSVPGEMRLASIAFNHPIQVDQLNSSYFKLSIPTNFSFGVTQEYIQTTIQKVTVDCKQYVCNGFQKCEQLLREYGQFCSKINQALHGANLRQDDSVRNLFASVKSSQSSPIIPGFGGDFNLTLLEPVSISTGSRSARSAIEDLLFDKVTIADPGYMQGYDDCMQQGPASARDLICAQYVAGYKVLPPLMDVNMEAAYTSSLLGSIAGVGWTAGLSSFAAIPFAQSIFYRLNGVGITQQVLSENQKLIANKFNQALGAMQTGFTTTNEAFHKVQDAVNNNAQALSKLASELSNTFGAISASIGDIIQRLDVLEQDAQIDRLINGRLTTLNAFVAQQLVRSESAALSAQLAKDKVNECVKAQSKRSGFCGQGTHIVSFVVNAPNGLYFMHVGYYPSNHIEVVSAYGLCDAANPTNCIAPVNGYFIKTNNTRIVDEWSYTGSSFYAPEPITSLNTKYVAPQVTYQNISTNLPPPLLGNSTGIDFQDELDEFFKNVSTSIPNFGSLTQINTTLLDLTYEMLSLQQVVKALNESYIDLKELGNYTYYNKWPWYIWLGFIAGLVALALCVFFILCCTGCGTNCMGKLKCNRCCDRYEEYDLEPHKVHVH
# UniProt P36334, sequence (P36334 14-1353): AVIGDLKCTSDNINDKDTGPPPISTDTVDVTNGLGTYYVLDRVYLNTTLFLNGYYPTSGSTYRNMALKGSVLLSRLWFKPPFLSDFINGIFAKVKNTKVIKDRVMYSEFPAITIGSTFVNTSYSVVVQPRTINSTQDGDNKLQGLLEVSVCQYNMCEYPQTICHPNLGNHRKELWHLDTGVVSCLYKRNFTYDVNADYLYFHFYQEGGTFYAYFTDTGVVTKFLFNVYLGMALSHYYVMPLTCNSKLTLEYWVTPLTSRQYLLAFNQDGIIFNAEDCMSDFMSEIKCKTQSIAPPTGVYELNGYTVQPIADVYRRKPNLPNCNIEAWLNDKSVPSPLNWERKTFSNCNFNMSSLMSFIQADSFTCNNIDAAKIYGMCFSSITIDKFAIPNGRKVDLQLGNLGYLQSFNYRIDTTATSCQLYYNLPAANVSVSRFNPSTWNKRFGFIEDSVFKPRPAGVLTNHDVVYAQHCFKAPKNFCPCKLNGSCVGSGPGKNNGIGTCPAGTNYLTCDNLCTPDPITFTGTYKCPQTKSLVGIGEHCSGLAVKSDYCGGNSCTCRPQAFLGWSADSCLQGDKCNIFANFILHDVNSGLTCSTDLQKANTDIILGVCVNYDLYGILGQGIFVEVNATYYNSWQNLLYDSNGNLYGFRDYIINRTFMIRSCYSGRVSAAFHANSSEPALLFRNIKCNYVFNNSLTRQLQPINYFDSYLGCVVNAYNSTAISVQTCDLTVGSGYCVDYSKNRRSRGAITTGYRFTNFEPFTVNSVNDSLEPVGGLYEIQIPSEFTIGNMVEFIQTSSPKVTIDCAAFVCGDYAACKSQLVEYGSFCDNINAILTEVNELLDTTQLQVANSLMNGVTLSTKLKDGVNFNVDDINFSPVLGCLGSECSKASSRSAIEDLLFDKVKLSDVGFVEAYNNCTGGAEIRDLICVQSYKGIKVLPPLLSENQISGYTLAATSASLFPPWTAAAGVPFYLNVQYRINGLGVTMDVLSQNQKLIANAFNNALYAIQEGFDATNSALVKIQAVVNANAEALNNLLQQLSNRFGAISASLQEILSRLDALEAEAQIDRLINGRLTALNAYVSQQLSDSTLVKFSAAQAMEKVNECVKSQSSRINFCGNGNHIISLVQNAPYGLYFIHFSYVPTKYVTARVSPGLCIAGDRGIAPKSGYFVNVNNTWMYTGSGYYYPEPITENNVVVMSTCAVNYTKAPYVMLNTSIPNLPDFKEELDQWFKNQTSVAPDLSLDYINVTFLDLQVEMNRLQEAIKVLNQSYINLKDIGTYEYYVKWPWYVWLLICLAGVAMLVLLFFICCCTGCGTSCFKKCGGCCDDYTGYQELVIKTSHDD
substance,measurement,setting,value
wild-type griffithsin,Antiviral activity EC50,[1],0.18 µg/mL
same,Antiviral activity EC50,[2],< 3.2 ng/mL
same,Antiviral activity EC50,[3],0.16 µg/mL
same,Antiviral activity EC50,[4],< 0.124 µg/mL
same,Antiviral activity EC50,[5],0.78 µg/mL
same,Antiviral activity EC50,[6],1.19 µg/mL
same,Antiviral activity EC50,[7],0.61 µg/mL
same,Antiviral activity EC50,[8],0.61 µg/mL
same,Antiviral activity EC50,[9],< 0.1 µg/mL
